Reference: patent publication US20260008817A1, “CYCLIC PEPTIDE OR SALT THEREOF, AND USES THEREOF” (FUJIFILM Corporation, priority 2023, published 2026)

Tests used:
[1] = Reductive stability of cyclic peptide (DTT treatment, LC); assay type: physicochemical; details: residual rate after DTT treatment, room temperature, 1 hour
Description: The molecular stability of the cyclic peptide was evaluated by analyzing an aqueous solution of the cyclic peptide treated with a reducing agent by liquid chromatography (LC).
The reducing agent treatment was performed under the following conditions based on the concentration of glutathione contained in the cells. 25 μL of a 0.2 mg/mL cyclic peptide aqueous solution was prepared, 58.8 μL of a 12.6 mmol/L DTT aqueous solution was added to the aqueous solution, and the mixture was incubated at room temperature for 1 hour to obtain an aqueous solution of the cyclic peptide treated with a reducing agent. The DTT aqueous solution was used by diluting a 1 mol/L (+−)-dithiothreitol (DTT) solution (FUJIFILM Wako Pure Chemical Corporation, 044-33871) with water. The total area of all the peaks in LC/MS of the cyclic peptide before the reducing agent treatment was set to 100%, and the proportion of the total area of all the peaks in LC/MS of the aqueous solution of the cyclic peptide treated with the reducing agent was determined to calculate the residual rate of the cyclic peptide, and the molecular stability was evaluated according to the following evaluation criteria. The evaluation result preferably satisfies the evaluation criteria A, B, or C.
• A: The residual rate of cyclic peptide is 90% or more. • B: The residual rate of the cyclic peptide is 70% or more and less than 90% • C: The residual rate of the cyclic peptide is 50% or more and less than 70% • D: The residual rate of the cyclic peptide is less than 50%
The LC used for the evaluation of molecular stability was set to the following conditions. • LC device: Prominence series (pump, column oven, autosampler, detector) (manufactured by Shimadzu Corporation) • Detector: photodiode array detector (SPD-M20A), measurement wavelength of 280 nm • Column: TSKgel ODS-100V, inner diameter of 4.6 mm×length of 150 mm, particle diameter of 5 μm (manufactured by Tosoh Corporation) • Eluent A: solution containing 0.1% trifluoroacetic acid as solute, and solvent is 100% water • Eluent B: solution containing 0.1% trifluoroacetic acid as solute, and solvent is 100% acetonitrile • Flow rate: 1.0 mL/min • Injection amount: 25 μL • Gradient: 20% to 50%: Eluent B (0 to 15 minutes), 100%: Eluent B (15 minutes) • Column temperature: 40° C.

[2] = biological target: T1, FGFR4 Protein, Human, Recombinant (His Tag) (Homo sapiens, UniProt P22455); test: SPR FGFR versatility, FGFR4 on immobilized cyclic peptide; assay type: binding; details: 1 μmol/L FGFR, 25° C.
T1 construct: His tag; purchased Sino Biological 10538-H08H
T1 sequence (P22455 22-369 limits assumed): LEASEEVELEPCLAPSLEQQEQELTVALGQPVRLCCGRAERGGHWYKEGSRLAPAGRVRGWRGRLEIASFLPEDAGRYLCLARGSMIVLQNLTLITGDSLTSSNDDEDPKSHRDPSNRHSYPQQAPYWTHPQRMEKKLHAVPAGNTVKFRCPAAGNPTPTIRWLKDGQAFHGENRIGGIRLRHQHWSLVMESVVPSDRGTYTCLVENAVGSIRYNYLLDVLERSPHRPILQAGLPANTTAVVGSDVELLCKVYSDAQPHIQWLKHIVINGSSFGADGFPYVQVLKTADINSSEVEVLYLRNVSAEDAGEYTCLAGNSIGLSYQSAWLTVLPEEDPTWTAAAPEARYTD
Description: The binding of the cyclic peptide to various types of FGFRs was evaluated using a surface plasmon resonance (SPR) method.
The binding affinity of the chemically synthesized cyclic peptide to FGFR was evaluated by the following procedure.
A CM5 sensor chip (Cytiva, 29149603) was set in Biacore-T200 (manufactured by Cytiva) which is a surface plasmon resonance device, and an HBS-EP buffer (Cytiva, BR100826) was added as a running buffer at a flow rate of 10 μL/min to equilibrate the flow channel. Next, 70 μL of a mixed aqueous solution of 0.2 mol/L 1-(3-dimethylaminopropyl)-3-ethylcarbodiimide (EDC) and 0.05 mol/L N-hydroxysuccinimide (NHS) was added to activate the sensor chip. Then, a cyclic peptide prepared to 2 mg/mL in HBS-EP buffer was added thereto to perform immobilization at about 200 RU. […]
After various FGFRs (FGFR1 Protein, Human, Recombinant (His Tag) (Sino Biological, 10616-H08H), FGFR3 Protein, Human, Recombinant (ECD, His Tag) (Sino Biological, 16044-H08H), FGFR4 Protein, Human, Recombinant (His Tag) (Sino Biological, 10538-H08H)) diluted with HBS-EP to 1 μmol/L at 25° C. was added to each flow channel of the cyclic peptide-immobilized sensor chip prepared above, for 10 minutes, HBS-EP was allowed to flow as a running buffer for 30 minutes, and the binding of various FGFRs to the cyclic peptide was measured. […]

Substance: 335 (ACVWTFDRHAQEISQALHKVKKK; not fully specified; Description of Artificial Sequence: Cyclic peptide) [compound 335]
- Evaluation result of reductive stability [1]: B (The residual rate of the cyclic peptide is 70% or more and less than 90%)
- Evaluation result of binding affinity to FGFR4 [2]: A (The binding amount is 0.05 molecules of FGFR/one molecule of the cyclic peptide or more.)
